# Laboratory results reported in patent US20120052092A1 (IMPERIAL INNOVATIONS, published 2012).
# B1: fH67 (CCPs 6 and 7 of factor H) (other)
# chain: TLKPCDYPDIKHGGLYHENMRRPYFPVAVGKYYSYYCDEHFETPSGSYWDHIHCTQDGWSPAVPCLRKCYFPYLENGYNQNYGRKFVQGKSIDVACHPGYALPKAQTTVTCMENGWSPTPRCI
# notes: domain: CCPs 6 and 7; also called CCPs 67; Factor H domains 6 & 7
# Biological target: T1, factor H binding protein (wild type, variant 1) (Neisseria meningitidis, UniProt E6MV22 20-274)
# T1 sequence: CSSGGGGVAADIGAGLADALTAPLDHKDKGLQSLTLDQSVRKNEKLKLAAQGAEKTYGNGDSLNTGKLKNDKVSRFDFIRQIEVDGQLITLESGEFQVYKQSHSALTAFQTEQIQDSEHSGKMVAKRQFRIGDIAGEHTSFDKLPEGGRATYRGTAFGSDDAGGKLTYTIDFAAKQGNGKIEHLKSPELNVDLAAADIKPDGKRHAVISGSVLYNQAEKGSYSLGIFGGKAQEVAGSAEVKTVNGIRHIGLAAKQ
# Assay: derived from binding studies (SPR)
binder,measurement,value
B1,ΔG (calculated from KD),-11 kcal/mol
